Measured values: a protein production outcome set (Wang et al. 2014)

Assay: label from the status in PepcDB records

| Sequence | protein production |
| --- | --- |
| MPMWLQALMWGTLAGGALVLGAGIAWMWKVPPKIVSTVMAFGAGVLISALAFELVDEAVEGGGLLPTVLGFLLGALIFVGSNALLARAGAKHRKRSGGSQPSEKDSPGSGTAIAVGALIDGIPESVVLGVGLLAGGAVSPAMLAAVLISNVPEGLSSTAGMKKAGRSPAYVFGTWIGIAVFSGLAALLGYTALENAPETVIAFITAIAAGGILAMLADTMIPEAFEEHHNLTGLTAAVGFLSAFTIHHVGG | failed |
| MPVTDVKHDLDTLTLTITAEFAAPVTRIWQIYADPRQLEKVWGPPSHPATVVDHDLRPGGRVTYFMTGPDGEKYAGYWEITAVDEPHSFSFLDGFADEDFNPNTDLPVSTNVYTFTEHDGGTRATYVGTYASAEALQQVLDMGVIEGASSAINQIDALLTA | failed |
| MRVFLLLFLLFPVLELFLLVRVGMSIGFLWTFLLVVATSMLGLFVMRVAGFATALRARESLARGELPAQEMLEGLMVAVGGGLLLLPGFISDILGVICLLPITRRLLISKVRRRAEDQAMRQRAFADDLQTQANQGPASHRPNAIHQPTREPDVIEGEFEHRDK | failed |
| MLELFLKSFLTLFVVMDPVGLVPVFVALAGDRPHRTQVLIARKAVLVAGGLLTFFYFFGRELLGHLGISLEALRIAGGVLLFRIATEMVFAHHERETEEERDEALSRADISVFPLAIPLIAGPGALASVLVLGAEAKGVPYGFAVVLFTAYLVLFLAYLFLRGATAVRRALGRTGVNVVTRVLGLLLAALAVQYVADGVRGLL | failed |
| MLNRVFLEGEIESSCWSVKKTGFLVTIKQMRFFGERLFTDYYVIYANGQLAYELEKHTKKYKTISIEGILRTYLERKSEIWKTTIEIVKIFNPKNEIVIDYKEI | not failed |
| MGHHHHHHSHEELPPTTELEEGLRNGVYLAKLAKFFAPKMVSEKKIYDVEQTRYKKSGLHFRHTDNTVQWLRAMESIGLPKIFYPETTDVYDRKNIPRMIYCIHALSLYLFKLGIAPQIQDLLGKVDFTEEEISNMRKELEKYGIQMPSFSKIGGILANELS | failed |
| HGILIRSSAFLEELADLTSLVVDKTGTLTHGSLRLQALRLADAAEEASVLRLAASLGAASSHPVSRALAALAAHDAYHPLSDIRERQGFGVVARTAAGEAALGRPELFQQLGIDASEVPEHEGPIAGIALDGRFLGWLLLADSVRAEAAEALADLRELGLGRQLLLTGDRRAVADAVAKQVGIRQLVAQALPEDKLRQVGAEIGSGFRPMVVGDGINDSLALKAGVVGVAMGAGGADIALASADIVLIGSDLRRLGTCVRLSR | failed |
| MNLINMSNFTSGRRLLRFAVVADSHLNPVNAGNTSPWQTNHLANPRNEVVVAAINRIAPAFTVHVGDVVHPLPHSTDYDGAADFATTLYRGLQAPFYIAPGNHDIGDKHLPGNPAACISADSCGKYEQHFGAQWQAFTEGNVCFIIINACLLGSGLPQEDAQWQFLQSRLAEEKAAGRRLFLFTHYPPFVTAPDEENHYDNIDHGPRRRLLELTASAGVEALFAGHVHTFFLNRHAGMWSYALPSSTNFRQDYAELFRVEPGEELGRNDLGKFGFFVVDIHEHGHIARFVRTYGSTDPAQGEEIALQVEGDVREHAAGTVAADFRHDWARVEALPYNPPLDAFVRKRVRNDYYILNLWDAGMRGVRLPIHDIADEQAFERVRLLGELGHRCLVFGTAVPDAHLLERLASLGPALEGYEWIGPDSAIAAHAAGQFARRGIRLFVAPVMQPPSSHSQGQYDHNMTSGIALGELDHLARFRPQRADASAPGVVVRIAGDEPVLESVRQAVEQAASHGVAIALHINLANRKSALVNDDDQAQAARVAEAAIAKAAYPDVPMTLDTFMDIDRGYFARHGLVDRRNNPRPAATVLRRLSERLRGHAVRIGAITREPAQSTVRIALGDQTLDVRIGRDISF | failed |
| MDEDGFSQCSKHFSKRGYFSGGGVCPFCLHERLSSLCPDCAHDLPCSCSSRAAVSFSPSSSSSSSSFSIFAGDISFNISGVGSVGRVASLIECEPAFRRSKSMAIPIKPDSVIDSGLDHGRSKKTSSFWRIFMGNRGDTKPAIMKKSRSVAVAGEFGFSPVPVPATGKGKGWNFPSPIKVFRQSRVSKMIFQQRSPLYRG | failed |
| MKISELGYDRAFLQLFDGNDFQLYDHQRMAIEQIRKGRNVVVSVPTAAGKTLIAYSAIYETFQRNLKSIYIVPLRSLAMEKFSELSRLRDLGLKVKMSIGDYDDSPDFIKRYDAVILTSEKADSLLHHDPYILNDVGLLVLDEIHTIGDESRGPTLETVASIARYVNPDVRILALSATVSNAMELASWLDASLIKSDFRPVPLKTGILYRDQLYLDGKRRSGVSINQIIRETVEDNGQVLMFVSSRKKAEDTARDLAQIFGSDANIKISSDETNVYDDMLNEILPRGVAFHHAGLSNDQRAFIEREFRARRIKVIVATPTLAAGVNLPARLVIVRDITRWGSDGISYLTNMEIKQMIGRAGRPGYDQYGIGLIYVSSQSSYEAAKDYLSTDPEPVVSYLGNEAKVRFNTLAAISMGLARSPSDIMKFYETTLFFSQNGKDLLEEKISASLKFLEKNGFIKQSPDLRTTQLGKVTSDLYIDPESALRLVDFFDGPADVDHAIYYISLCREIVPFNIKDDYSAMEFLDDIGLIDGDIDAAKTAIVLRDWISEASYKYLYDKYGIAPGDMQARISMADWLSYSLAKLSSIYKPEVRRMLEILNLRIKEGIREDILQLVLIPGVGRVRARRLYDAGLRSIEDVASASPDRIKAIYGFSDTLANAIIRRARTIASKEVR | failed |
| MIMSKESIIFVGLFTVILSAVILMLSYTSSGQELNQYVKIEVQQGDTLWSIADQVADTKKINKNDFIEWVADKNQLQTSDIQPGDELVIPLKKKHQDAYELATVR | failed |
| MLNFKTFSDLRPKKTRAFVFVKILRLWNWPPNYFGEEPTMILVDEKGHRIDAKSSRHAYKEEMISTLREGKWYILSNFKVVVANPLERFSTHVFQIEFLKKTTMEPVTPKSRYHFIECVDFHTIKHAAPIQKKFVVDAMGVIESVSPIGKIPWVARDWESDFASRYLVFTLKDSMHKYIKCVAVGSSCEEFERKWYKKISEPNFKMEPVMIILRFWKISEFEGKPCLISVYGCSKVHIDPNFRGIDKNNYL | failed |
| MIHDDQKPSSSLDLQEIRIQIDSVDQQIQELINRRATLAEAVAKAKFASEENPLFYRPEREAQVLRKVMERNQGPLSDVTMARLFREIMSACLALEAPQSIAFLGPEGTFTQSAALKHFGKDAVVRPLPTIDEVFREVEAGSAHYGVVPVENSSEGVVNHTLDCFRTSQLNVIGEVELRIHHQFLVSHNTRKDSIKQIYAHQQALAQCRQWLDTHYPGVERVALSSNAEAARRIRNEWHSAAIASDIAASMYDLEIFHSNIEDNPENTTRFLVIGREKIPQSGNDKTSLLISAHDRAGALLEILAPFAKHKISLTSIETRPALPEKWAYVFFIDLEGHIEQENVAAAIDDIRPLVKELRILGSYPAAVL | failed |
| MICFIKTLFVKIKRKKTSYVTFFLMPILTTLLALSLSFSNNNQAKIGILDKDNSQISKQFIAQLKQNKKYDIFTKIKKEHIDHYLQDKSLEAVLTIDKGFSDKVLQGKSQKLNIRSIANSEITEWVKAQTNYLLENYNIIGDVALGNEDTFNRILQKNQQLNYDVKQVTLTDRSRSKAVSSTTTGFLLILMLGSTSVIYSGILADKSSQLYHRLMLSNLSRFRYMLSYVCVGFVAFTIQIVIMLSLLKVFNISFFVPTSLLLIIFFLFSLLAIGFGLLIGAITQNSQQSSQLANLIVMPTSMLAGCLWPLSITPSYMQAIGKLLPQNWVLSAIAIFQSGGTLSQAWPYLLALMGTALALISFSSLLLKPTKL | failed |
| MRTLGIIGFGGFGQFMVKHLQPYISVTVHDLTDLSHIAAEHKVEWGTLQETASKDIVILAVPVQFLESLLLEIKDYLKAEALIVDVSSVKVKPIELMLKHLPLTVDILGTHPLFGPQSGKNGIKGLNMVVCPVRSKKMRAITHFLRNVIQLNVLERTPETHDKQMAYVQALTHFIGRSINEMDIPDVEQKTPAYQYLLDIKRNLGGDSMDLFLTIELENPYAKKVREEFMGALKSLNDRLEHIKR | failed |
| MESDIEILSEADASMRKLRIFGIDDREDENGRRRIKDVEVYVPIVCGSIAFYLGKKATEYRTHKWTVYVRGATNEDLGVVIKRVIFHLHPSFNNPTRVVDAPPFALSECGWGEFKIDITVFFHTDVCEKKLELSHVLKLNPENAYGPIPKSIKIPVVAESYNEVVFPDPFESFVARVHNHPAIQISNIPDGLNLPPPGAFLF | not failed |
| MPPVWTLPRLYQHFQGAIDLELWTIPYYLTVLYSIKDPTTVPYRLIQAAVYQEMLHAQLVSNIANAYGYSPTLSAPEYVGTAVPHIDFDLDTPNPTSIFTPYSAELGPLDLTRVNTMCLIEYPEWRTQREPDLADDVTDYGSIGEFYDALRVGMEQLRGHVRGNQKQMDEFGPFYQNSPPLTVTESGDAGFLQALTLVDIIVDQGEGQTQPVETIPTEFQNTADGFQDAWPHFQRFDFIRRMPNWPGVYTGVTDPPAGSPGAEAQARLIADFAGFLDILNGMFSGGGAPPAFGVQMAKLGGDILSCWKLGAVPRYS | not failed |
| MPQDTTNPSTGTAEQRTATDTTVQLRAGWQGRFYEDFAVGDVYKHPYGRTVTETDNVWFTNLTMNANPMHFNAAYASGTEFDERLVNGLFVIALSVGMSVVDVSANATANLGYDDIQHHAPVFHGDTLFAESEVLSKRESESRPHVGMVTTELRTYTQDGELVLSLERTPMVRKRGAADPSAARPPGWPAGVGTQPDAERTVPDGESR | failed |
| MPTLDALTPIFRQVFDDDSIVLTRETSANDIDAWDSLSHMNLIVSLEVHYKIKFALGELQKLKNVGDLADLVDKKLARKLEHHHHHH | failed |
| MGVNMEVCVVKPTSVDDSREITETLLAGRTVILNLEGMDLEIAQRIIDFISGATFAISGNLQKISNYIFLVTPTNVDILEHHHHHH | failed |
| MAKGYWIAQVDVRDSERYKDYVSTAKPAFERFGANFLARGGSVTELEGTARARNVVIEFPSVQHAIDCYNSPEYQAAAKIRQEVADAEMMIVEGI | not failed |
| MQNKARKNYIIYVLMLLLFGGLIYVAIEEGDRFSHHAANTLNTVQDGPFAMFLQFMQDNLHHPLTTLLIQIIAVLLMVRLFGYLFSLIGQPGVIGEIVAGIVLGPSVLGLFFPEAFHFLFPVHSLTNLELLSQVGLILFMFVIGMELDFSVLKNKINETLVISHAGILVPFFLGILSSYWIYETYAADHTPFLPFALFIGISMSITAFPVLARIIQERNMTKTPLGTLAIASAANDDVTAWCLLAVVIAISKAGSFASALYSVGLAVAYIAVMFLVVRPFLKKVGEVYANKEAINKTFVAFILLILIISSCLTEIIGIHALFGAFMAGVVMPSNLGFRKVMMEKVEDISLVFFLPLFFAFTGLRTEIGLINSPELWMVCLLLVTVAIVGKLGGCAIAARLVGESWKDSLTVGTLMNTRGLMELVALNIGYEMGVLPPSIFVILVIMALVTTFMTTPLLHLVERFFVHREEKLSLKRKLIFCFGRPESGRSLLSIYDLLFGKQLKKEHVIAAHYTVGTDLNPLDAQHYESESFALLNQRAVELNIQVDNHYRVTDKLVQEMIHFIRKEHPDMLLLGAGSHYRPEMPGTPGAILWLTLFRDKIDDIMEQVKCPVAVFVNRNYREGALVSFVLGGMIDVFLLSYLNIMLQNGHSVRLFLFETDDEEFHQCIDDLLAHYADQIVVVWFAGVEELVTKERDGLLVMSHLSYTKLSEDELVMRELSSLLVIRRNKNKGEKNERLEIG | failed |
| MLGHNKISVIIPAYNEERRIGNVLKGIPDFVDEVIVVDDGSSDGTSKVAMELGATVIRLNKNSGKGAAMREGLKISTGDIIVFMDADGQHNPKEIYRLVKPIVEGRADLVIGRRIITRGKRPMSRKISNFITTRLITLKTRKKILDTQSGFRAIRREFVPVIESDRYEVETEVLIKAIKKGARILEVPISTRYDVETGHFKMIDIFRFLFALIKYLEHHHHHH | failed |
| VKSIFEIDIEKLADSGVKGIITDLDNTLVGWDVKEPTKGVKSWFAKAKDLGITVTIVSNNNKSRVSSFSSNLGVDYIFKARKPMGKAFKMAIKKMKIQPRETVVVGDQMLTDVFGGNCNGLYTIMVVPVKRTDGLITKFN | not failed |
